Results as given in patent publication US20020198363A1.

Biological target: chimera protein of europium (Eu) labeled human glycoprotein Ib α-chain and a mouse IgG2a Fc region (human; mouse) (UniProt P07359)
Sequence of UniProt P07359 (P07359 17-335 limits assumed, change not shown): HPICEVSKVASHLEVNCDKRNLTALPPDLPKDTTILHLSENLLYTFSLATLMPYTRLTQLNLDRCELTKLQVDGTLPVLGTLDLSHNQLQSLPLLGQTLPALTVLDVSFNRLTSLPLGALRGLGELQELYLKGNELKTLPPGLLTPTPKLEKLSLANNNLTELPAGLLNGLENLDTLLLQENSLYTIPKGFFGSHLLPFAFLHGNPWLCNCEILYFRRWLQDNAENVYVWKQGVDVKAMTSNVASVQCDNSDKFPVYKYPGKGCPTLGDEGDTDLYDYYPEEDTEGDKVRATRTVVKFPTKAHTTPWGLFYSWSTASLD

| Substance | IC50 [µg/mL] |
| --- | --- |
| AS1051-PEG5000 (from UniProt P81508 1-126) | 0.0981 |
| AS1051-PEG20000 (from UniProt P81508 1-126) | 0.0903 |
